Reference: the supplement of paper PMC12764529
± gives the half width of the 95% confidence interval.

Key:
[1] = folding stability dG unfold from chymotrypsin proteolysis; higher = more stable
Outline: (§1)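 Only designs with AlphaFold2 dimer inter-PAE above 15 were retained; each was a mini-protein under 80 residues with no cysteine, in a PA-tagged cDNA display construct. After digestion with trypsin and chymotrypsin and sequencing, K50 was inferred by Bayesian fitting of counts, and unfolding free energy was derived per protease or combined against a sequence-predicted unfolded-state K50 and a shared folded-state K50.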

[2] = folding stability dG unfold from trypsin proteolysis; higher = more stable
Outline: as §1

[3] = folding stability dG unfold (combined trypsin and chymotrypsin); higher = more stable
Outline: as §1

| Sequence | folding stability dG unfold [1] | folding stability dG unfold [2] | folding stability dG unfold [3] |
| --- | --- | --- | --- |
| SAGIKPGEKIEKVEIVKVEVKKNKDGSKTVTVTIKLKDGKTITIKPGETIEIKIENKKEGEKITLKVKSAGG [r19_199_TrROS_Hall] | 1.91 ± 0.13 kcal/mol | 1.45 ± 0.13 kcal/mol | 1.74 ± 0.16 kcal/mol |
| SAGGSAGGSAPNYIKIRIKFQSDGKRHSMEIFIPDNPKKAKQIAKEMANMGGIEDVEVERYSAGGSAGGSAG [r3_310_TrROS] | 0.659 ± 0.13 kcal/mol | 0.515 ± 0.13 kcal/mol | 0.667 ± 0.16 kcal/mol |
| SAGSKEFPFESEFEFEGYRVKVEVKVRVEFDENGKPTKNFKPEIKIEIKPLPPKPVITAEEALKLDPEKSAG [r14_442_TrMRF] | 1.93 ± 0.14 kcal/mol | 0.114 ± 0.19 kcal/mol | 1.47 ± 0.3 kcal/mol |
| SAGGSAGGSTVTIEIPGFKTPEEIAKAIAEKTGKKVKEVKVEKDKKNKTYTITVTVDGKEITFSAGGSAGGS [r12_935_TrROS_Hall] | 1.03 ± 0.087 kcal/mol | 0.333 ± 0.082 kcal/mol | 0.805 ± 0.15 kcal/mol |
| SAGGIVPLPNGHWVIMAQFEVDEGQTVDDAPEFAREIAKTFGIKPTQVQVDPEKGYVNVAIKIPPGALSAGG [r13_178_TrROS] | 0.263 ± 0.35 kcal/mol | 0.217 ± 0.11 kcal/mol | 0.327 ± 0.25 kcal/mol |
| SAGGERLTLEELEELLKNLPPGVEEVTITLKLEVEVRTEVRLNEDGSLETRTETRVTTELTLTLPKESAGGS [r16_708_TrROS_Hall] | 4.01 ± 0.4 kcal/mol | 2.5 ± 0.34 kcal/mol | 3.46 ± 0.25 kcal/mol |
| SAGGSAGGSDVEVTVTLEYDEETGVLYVTAEVRDKETGRTVRVVVKFDLETNEWEVVAVEVLPSAGGSAGGS [r20_163_TrROS_Hall] | 4.25 ± 0.16 kcal/mol | 2.92 ± 0.16 kcal/mol | 3.91 ± 0.11 kcal/mol |
| SAGGSAGGSAEPPEVRIRLEVRLLPDGTLEVTAEIEVDGKTYRITVTVDAKTNEIVSVSIEPSAGGSAGGSA [r18_459_TrROS_Hall] | 3.89 ± 0.21 kcal/mol | 4.44 ± 0.36 kcal/mol | 4.3 ± 0.46 kcal/mol |
| SAGGSAGGSAGGKWIMVDSPEDIKEFAEDQGYKIKVDNVHPFPGDKNHYMVWIEIEPPGSAGGSAGGSAGGS [r10_126_TrROS] | 1.13 ± 0.18 kcal/mol | 1.19 ± 0.12 kcal/mol | 1.18 ± 0.14 kcal/mol |
| SAGGEVELKIKIEIRVELNEDGELKVEIKIEIELRPKPEPELTEEERLAEELRKKYPGLSKEELEALLSAGG [r13_136_TrROS_Hall] | 1.63 ± 0.13 kcal/mol | 2.87 ± 0.32 kcal/mol | 2.32 ± 0.27 kcal/mol |
| SAGGSAGGSATRVEVEWKDGYLVITKYETLPNGEWKEVKTIVIPIEGNDPIAIEKAKEVIEKLSAGGSAGGS [r12_169_JUSTAS] | 2.89 ± 0.049 kcal/mol | 2.89 ± 0.051 kcal/mol | 2.9 ± 0.064 kcal/mol |
| SAPIRPGQDLKIEPEIRRYPNGSMSYTYRLEFPNGPTVHVRHTMQRDPEHGKPRHKWDIHLSPKALEAFSAG [r14_842_TrROS] | 1.37 ± 0.09 kcal/mol | 1.49 ± 0.057 kcal/mol | 1.41 ± 0.07 kcal/mol |
| SAGGSAGGSAGPPVTLDEIRDHLPPENIEDVEVNPPEGWVVIEFKPPGGEKQEITIRADDSAGGSAGGSAGG [r17_374_TrROS] | 0.271 ± 0.021 kcal/mol | 0.198 ± 0.062 kcal/mol | 0.277 ± 0.13 kcal/mol |
| SAGGSAGGSAGGTIEELVKAGKTVKVRVRLKNGETLEVEIRPDEVVEFPNIEEIEVEEVSAGGSAGGSAGGS [r10_700_TrROS_Hall] | 1.86 ± 0.026 kcal/mol | 0.784 ± 0.016 kcal/mol | 1.51 ± 0.05 kcal/mol |
| SAGGSAGGSAGGEPDKVSIHINITEEFIEQIKNGKPIPPWARPAIKYAQKKGKKVEIVWSAGGSAGGSAGGS [r10_890_TrROS] | -0.532 ± 0.53 kcal/mol | -1.04 ± 0.61 kcal/mol | -0.498 ± 0.26 kcal/mol |
| SAGGSPHVSTDAADPELAARLLREAFGTDEVPLVRRDPTTGALLAFLPATGRLVWTDRTTVRVEPSSAGGSA [r2_205_TrMRF] | -0.0869 ± 0.13 kcal/mol | 0.325 ± 0.13 kcal/mol | 0.13 ± 0.074 kcal/mol |
| SAGGMKITKEGNELTLTYPNLTVTYDPNTGKMTITNPATGKTVTIPVPATSLEEKLAAVEEVKAALPSAGGS [r8_447_JUSTAS] | 0.707 ± 0.042 kcal/mol | 1.06 ± 0.025 kcal/mol | 0.918 ± 0.041 kcal/mol |
| SAGMKKVEIVEEVKDPETNEPVILVRDKDTGELVKFHPNGKVTIYDLNDPNKAKVFEAKISDVLEELANSAG [r5_491_TrMRF] | 1.28 ± 0.19 kcal/mol | 0.622 ± 0.071 kcal/mol | 0.847 ± 0.21 kcal/mol |
| SAKVVIIKVKSPEELKAAIEELKKKLPEGAVIYIVNEDGSVYKITFDKKTGKVKIEKVKSLEELKKLLKSAG [r14_913_TrROS_Hall] | 3.96 ± 0.086 kcal/mol | 2.31 ± 0.054 kcal/mol | 3.47 ± 0.14 kcal/mol |
| SAGGSAGGSAGVTIPDPGEEELRKALEAGREVRVAFPESGKVVLVEGPGPELGEEPEPAASAGGSAGGSAGG [r11_94_JUSTAS] | 0.589 ± 0.012 kcal/mol | -0.619 ± 0.093 kcal/mol | 0.275 ± 0.075 kcal/mol |

| Sequence | folding stability dG unfold [1] | folding stability dG unfold [2] | folding stability dG unfold [3] |
| --- | --- | --- | --- |
| SKKYFLKIEIEIEVELRPLPDEPGYVVLRARIKIKITLVKVDPETGEIVEEKEFEIEIEIELVFPPGVKPSA [r9_1234_TrROS_Hall] | 6.38 ± 0.71 kcal/mol | 4.35 ± 0.58 kcal/mol | > 6 kcal/mol |
| SWNLRLEIEEVEIEPSDNWIIIMVRVEIEGRNPDDPNKPRPVFEVWVMIPIPLPPPKPKPDPDDPAAAKDSA [r9_357_TrROS] | 3.5 ± 0.15 kcal/mol | 2.29 ± 0.25 kcal/mol | 2.8 ± 0.43 kcal/mol |
| SAGGGPAAEVARLLREAGYDVEVEVEVFSREENPPLLPGEPLVVRVRVYATPPTGPRRPLGEFVVPVGSAGG [r13_874_TrMRF] | 2.49 ± 0.029 kcal/mol | 1.47 ± 0.035 kcal/mol | 2.17 ± 0.06 kcal/mol |
| SAGGSAGGSAGGMKKKKLKEGVEIEFFREGDYLYVTTKIPETGKEETKKVKKVPKDIPLSAGGSAGGSAGGS [r10_240_JUSTAS] | 0.298 ± 0.14 kcal/mol | -0.245 ± 0.45 kcal/mol | 0.22 ± 0.23 kcal/mol |
| SAGGSAGGSSVPEGWEVEREKVLEAEIVGEDGPVLRVRLYRVRVRPVDGPPRYFFELDVDDVDSAGGSAGGS [r12_544_TrMRF] | 2.915 ± 0.027 kcal/mol | 2.38 ± 0.095 kcal/mol | 2.74 ± 0.11 kcal/mol |
| SAGGSAKYYYIVAEIDLPNKKVRFVKKVKKGDVEKFKAEIKKAFPGKKIKVKVIEFESEEEAKKAASAGGSA [r15_889_TrMRF] | 4.373 ± 0.043 kcal/mol | 3.13 ± 0.14 kcal/mol | 4.01 ± 0.088 kcal/mol |
| SAGGSAGGSMSPSESVTLTVVVEEITPGTPKVLLPEEVKEKYPNFEVQVKVEGKPATVTITRPSAGGSAGGS [r12_900_JUSTAS] | 0.444 ± 0.017 kcal/mol | 0.321 ± 0.021 kcal/mol | 0.385 ± 0.077 kcal/mol |
| SAGGSAGGSAGGKKKKVKKKVTITIKLSAEEVAKLLKDLYPEKNIKIEENEDGSLSVTFTSAGGSAGGSAGG [r7_670_TrROS_Hall] | 2.39 ± 0.041 kcal/mol | 2 ± 0.098 kcal/mol | 2.26 ± 0.11 kcal/mol |
| SAGGSAGGSAGPYVVTIELPSGERIEVAVPAERLEEHVEELKPLVEPARITVRPVAPDALSAGGSAGGSAGG [r11_103_TrMRF] | 0.477 ± 0.018 kcal/mol | 0.143 ± 0.02 kcal/mol | 0.376 ± 0.053 kcal/mol |
| SAGNPDYIPIPFRVWIMRRVPPGMSKEQAKKNPDMYVMVPIPVKFYIDPDTGRIRVENPDGKTIEFPLPSAG [r5_701_TrROS] | 3.15 ± 0.07 kcal/mol | 2.11 ± 0.03 kcal/mol | 2.68 ± 0.096 kcal/mol |
| SKFKIDEIKYEPNKPYTIKVKLPDGTTIEIKYDPNKPNEVKIILTHPDGSKKEFTLPYNYPININLKVNPSA [r9_875_TrMRF] | 2.05 ± 0.081 kcal/mol | 1.59 ± 0.031 kcal/mol | 1.95 ± 0.083 kcal/mol |
| SGPTSITFPDGSSASISLSPDSFTITITLPGSSATSTYDPATGTTTITLTFSSSTVTLTLDPATGTLTVGSA [r9_207_JUSTAS] | 5.01 ± 0.083 kcal/mol | 3.86 ± 0.11 kcal/mol | 4.89 ± 0.11 kcal/mol |
| SAGGSAGGSAGMKTITKKVKSEEEAKKLAEELKKKGYKVEVEVKKDPKTGNYIVTITIELPESAGGSAGGSA [r18_455_JUSTAS] | 3.89 ± 0.19 kcal/mol | 3.32 ± 0.18 kcal/mol | 3.91 ± 0.39 kcal/mol |
| SAGGSAGGSAKITITKEDIVSYDEENKTFTIKLKDGSTIKIRVEKVKDGKIKVYDEDTGKPISAGGSAGGSA [r18_418_TrROS_Hall] | 1.79 ± 0.048 kcal/mol | 1.27 ± 0.063 kcal/mol | 1.65 ± 0.18 kcal/mol |
| SAGGMKVTPNGKVVKKKPKVPVKKVTLTVKVKTAEEAKALADALRDLGYKVTVDEETGVVTVEVEIESAGGS [r16_765_TrROS_Hall] | 1.5 ± 0.058 kcal/mol | 0.996 ± 0.079 kcal/mol | 1.28 ± 0.1 kcal/mol |
| SAVINIEAWFPPGKSVEEAVDEAKNIIHQFGFEIDDVDVERDPNGWVRVDFTIKIKPPMPPEQRKKLQDSAG [r14_110_TrROS] | 2.91 ± 0.091 kcal/mol | 1.25 ± 0.051 kcal/mol | 2.45 ± 0.26 kcal/mol |
| SAGPPWEPVPITPEIIDKLADKLNPGFPISLQVYRHPDGRVKISIRNEGSGKEYTLVVDPDGDIEIEPSAGG [r19_70_TrROS] | 3.522 ± 0.033 kcal/mol | 3.07 ± 0.19 kcal/mol | 3.4 ± 0.1 kcal/mol |
| SAMITVEIVDPLPDIANLSEEEAKALAEELAEEYAKKKFPNENVKITKVEVELEPETPEIRVTVTLELKSAG [r14_310_JUSTAS] | 2.56 ± 0.083 kcal/mol | 2.09 ± 0.16 kcal/mol | 2.37 ± 0.15 kcal/mol |
| SMKINVVINITLPDGTTVTSTLNLTESEIEKTIKEKIPSSYKVEITKKDPVDPAKLPPGSSINVDLTVNLSA [r9_803_JUSTAS] | 1.69 ± 0.15 kcal/mol | 1.31 ± 0.079 kcal/mol | 1.59 ± 0.22 kcal/mol |
